Biological target: T1, Tolloid-like 1 (TLL-1) (Homo sapiens, UniProt O43897)
T1 chain: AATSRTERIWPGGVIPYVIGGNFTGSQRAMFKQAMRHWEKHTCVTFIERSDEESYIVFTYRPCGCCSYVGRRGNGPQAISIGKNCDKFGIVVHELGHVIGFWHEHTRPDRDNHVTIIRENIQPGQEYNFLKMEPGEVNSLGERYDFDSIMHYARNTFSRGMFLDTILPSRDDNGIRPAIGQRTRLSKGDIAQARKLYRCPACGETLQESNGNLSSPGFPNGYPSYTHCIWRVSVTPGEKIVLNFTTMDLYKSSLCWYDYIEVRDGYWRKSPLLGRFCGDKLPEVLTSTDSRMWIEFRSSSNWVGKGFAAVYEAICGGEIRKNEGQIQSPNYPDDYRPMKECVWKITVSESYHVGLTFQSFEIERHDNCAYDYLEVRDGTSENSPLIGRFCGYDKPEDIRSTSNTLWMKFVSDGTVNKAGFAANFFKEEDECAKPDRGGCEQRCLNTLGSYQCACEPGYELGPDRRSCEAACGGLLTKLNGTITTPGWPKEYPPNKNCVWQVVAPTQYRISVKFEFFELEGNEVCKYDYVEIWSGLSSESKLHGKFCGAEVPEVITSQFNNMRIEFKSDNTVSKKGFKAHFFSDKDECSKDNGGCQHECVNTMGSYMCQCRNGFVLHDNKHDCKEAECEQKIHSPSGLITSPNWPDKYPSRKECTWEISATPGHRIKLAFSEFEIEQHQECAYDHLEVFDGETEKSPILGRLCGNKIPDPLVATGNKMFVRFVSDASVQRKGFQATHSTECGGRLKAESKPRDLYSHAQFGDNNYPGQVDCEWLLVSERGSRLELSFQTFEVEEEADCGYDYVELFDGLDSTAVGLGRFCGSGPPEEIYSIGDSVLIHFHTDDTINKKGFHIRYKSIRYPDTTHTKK
Test: sedimentation equilibrium AUC

B1: Tolloid-like 1 (TLL-1) (protein)
chain: AATSRTERIWPGGVIPYVIGGNFTGSQRAMFKQAMRHWEKHTCVTFIERSDEESYIVFTYRPCGCCSYVGRRGNGPQAISIGKNCDKFGIVVHELGHVIGFWHEHTRPDRDNHVTIIRENIQPGQEYNFLKMEPGEVNSLGERYDFDSIMHYARNTFSRGMFLDTILPSRDDNGIRPAIGQRTRLSKGDIAQARKLYRCPACGETLQESNGNLSSPGFPNGYPSYTHCIWRVSVTPGEKIVLNFTTMDLYKSSLCWYDYIEVRDGYWRKSPLLGRFCGDKLPEVLTSTDSRMWIEFRSSSNWVGKGFAAVYEAICGGEIRKNEGQIQSPNYPDDYRPMKECVWKITVSESYHVGLTFQSFEIERHDNCAYDYLEVRDGTSENSPLIGRFCGYDKPEDIRSTSNTLWMKFVSDGTVNKAGFAANFFKEEDECAKPDRGGCEQRCLNTLGSYQCACEPGYELGPDRRSCEAACGGLLTKLNGTITTPGWPKEYPPNKNCVWQVVAPTQYRISVKFEFFELEGNEVCKYDYVEIWSGLSSESKLHGKFCGAEVPEVITSQFNNMRIEFKSDNTVSKKGFKAHFFSDKDECSKDNGGCQHECVNTMGSYMCQCRNGFVLHDNKHDCKEAECEQKIHSPSGLITSPNWPDKYPSRKECTWEISATPGHRIKLAFSEFEIEQHQECAYDHLEVFDGETEKSPILGRLCGNKIPDPLVATGNKMFVRFVSDASVQRKGFQATHSTECGGRLKAESKPRDLYSHAQFGDNNYPGQVDCEWLLVSERGSRLELSFQTFEVEEEADCGYDYVELFDGLDSTAVGLGRFCGSGPPEEIYSIGDSVLIHFHTDDTINKKGFHIRYKSIRYPDTTHTKK
modifications: Ca2+ (0.5 mM CaCl2), V5-His6 tag
  Kd: 2 nM

Reference: PMC3878766 (2010)
